The numbers were not newly measured in publication PMC8594252, which cites them from elsewhere.

This data set deals with HSPE1 (Homo sapiens) (UniProt P61604).

Consider HSPE1 (from UniProt P61604), for which the Kd is 3 µM.
